In patent US20090202549A1:

Target: mouse IL-12 (p40/p35 heterodimer) (mouse) (UniProt P43432)
Test: cell-based or functional assay

Chain of mouse IL-12 (p40/p35 heterodimer) (mouse) (P43432 23-335, chain 1 of 2): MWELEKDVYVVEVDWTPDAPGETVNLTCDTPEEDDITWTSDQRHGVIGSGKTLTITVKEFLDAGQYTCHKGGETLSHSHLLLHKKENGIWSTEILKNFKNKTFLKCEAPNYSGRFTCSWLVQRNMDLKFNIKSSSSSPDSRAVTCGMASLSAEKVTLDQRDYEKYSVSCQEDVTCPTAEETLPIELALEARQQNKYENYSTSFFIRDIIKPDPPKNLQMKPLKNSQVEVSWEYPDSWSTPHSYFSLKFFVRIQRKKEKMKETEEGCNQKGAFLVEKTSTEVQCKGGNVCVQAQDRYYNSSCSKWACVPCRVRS
Chain of mouse IL-12 (p40/p35 heterodimer) (mouse) (P43431 23-215, chain 2 of 2, further chain): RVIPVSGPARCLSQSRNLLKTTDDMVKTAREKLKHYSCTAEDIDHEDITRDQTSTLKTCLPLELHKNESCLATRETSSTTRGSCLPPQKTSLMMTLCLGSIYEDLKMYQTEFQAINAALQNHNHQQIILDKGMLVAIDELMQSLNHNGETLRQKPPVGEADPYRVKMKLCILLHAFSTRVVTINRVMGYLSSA

For “C17.8 (rat anti-mouse IL-12/IL-23p40, IgG2a) (antibody)”, the in vitro neutralization of IL-12 (times (against the anti-p35 mAb)) was 5.
